Results as given in the supplement of paper PMC9876800.

Tested on: peptide library, one residue held at a place counted from the S/T acceptor
Assay: relative phosphorylation of the sub-library (ratio to the mean residue at this position); higher = residue favoured
Settings: human
How it was run: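 Relative sub-library phosphorylation is a ratio to the mean residue at the same position. Purified recombinant kinases were incubated under kinase-specific conditions with biotinylated degenerate peptide sub-libraries, each fixing one residue at one position around a central Ser/Thr, using 50 μM peptide and 50 μM ATP spiked with γ-32P-ATP for 90 min. Spots captured on streptavidin membranes were phosphorimaged and quantified by densitometry.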

Chain of PRKACG, construct: Full length (P22612 whole entry, looked up): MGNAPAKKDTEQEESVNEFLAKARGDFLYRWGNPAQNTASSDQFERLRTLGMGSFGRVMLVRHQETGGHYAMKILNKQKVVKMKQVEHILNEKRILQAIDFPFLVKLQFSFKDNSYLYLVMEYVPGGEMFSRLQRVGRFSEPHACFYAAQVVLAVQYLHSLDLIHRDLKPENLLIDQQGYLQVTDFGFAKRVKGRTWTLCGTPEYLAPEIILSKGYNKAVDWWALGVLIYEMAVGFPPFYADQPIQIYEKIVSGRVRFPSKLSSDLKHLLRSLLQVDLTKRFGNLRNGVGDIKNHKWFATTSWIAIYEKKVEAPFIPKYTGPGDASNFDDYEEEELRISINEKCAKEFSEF
Chain of CSNK1A1, construct: Full length (P48729 whole entry, looked up): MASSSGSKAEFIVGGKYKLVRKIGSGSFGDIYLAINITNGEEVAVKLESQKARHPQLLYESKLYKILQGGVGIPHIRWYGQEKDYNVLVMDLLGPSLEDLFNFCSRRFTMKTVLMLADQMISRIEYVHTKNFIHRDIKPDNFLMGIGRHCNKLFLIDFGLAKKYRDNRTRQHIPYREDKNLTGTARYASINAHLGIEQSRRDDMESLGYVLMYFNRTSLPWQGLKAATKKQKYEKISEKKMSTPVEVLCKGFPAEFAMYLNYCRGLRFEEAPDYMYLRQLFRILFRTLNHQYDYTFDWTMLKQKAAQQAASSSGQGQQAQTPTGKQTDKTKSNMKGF
Chain of HIPK2, construct: aa153-564 (Q9H2X6 153-564, looked up): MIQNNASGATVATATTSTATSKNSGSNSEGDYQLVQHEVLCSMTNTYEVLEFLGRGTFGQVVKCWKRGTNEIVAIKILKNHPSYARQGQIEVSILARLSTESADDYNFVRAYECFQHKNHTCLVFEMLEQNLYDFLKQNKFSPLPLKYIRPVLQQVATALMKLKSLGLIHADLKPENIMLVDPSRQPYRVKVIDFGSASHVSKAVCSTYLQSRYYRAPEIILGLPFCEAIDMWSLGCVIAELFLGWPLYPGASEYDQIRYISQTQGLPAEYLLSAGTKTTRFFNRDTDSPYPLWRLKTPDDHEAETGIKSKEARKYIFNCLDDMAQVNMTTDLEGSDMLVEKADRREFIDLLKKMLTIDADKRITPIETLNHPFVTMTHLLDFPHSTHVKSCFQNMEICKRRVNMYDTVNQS

CSNK1A1, construct: Full length (from UniProt P48729)
relative phosphorylation
Settings | at +1 | at +2 | at +3 | at +4 | at -1 | at -2 | at -3 | at -4 | at -5
A fixed | 0.898 | 1.02 | 1 | 1.11 | 1.24 | 2.02 | 0.811 | 1.17 | 1.13
D fixed | 0.691 | 0.553 | 0.8 | 1.09 | 0.696 | 0.92 | 3.33 | 1.38 | 1.2
E fixed | 1.21 | 0.343 | 0.994 | 0.958 | 1.01 | 1.44 | 3.21 | 1.74 | 1.17
F fixed | 0.725 | 1.5 | 1.2 | 1.18 | 0.665 | 0.688 | 0.558 | 0.898 | 1.06
G fixed | 0.869 | 0.952 | 1.76 | 1.1 | 1.08 | 1.04 | 0.749 | 1.11 | 1
H fixed | 1.17 | 1.65 | 1.64 | 1.09 | 1.17 | 0.881 | 0.579 | 0.933 | 1.06
I fixed | 1.59 | 1.27 | 0.695 | 0.869 | 0.671 | 0.81 | 0.625 | 0.754 | 0.829
K fixed | 0.509 | 0.699 | 0.6 | 0.782 | 1.1 | 0.705 | 0.633 | 0.734 | 0.956
L fixed | 1.12 | 0.726 | 0.754 | 0.865 | 0.76 | 0.837 | 0.581 | 0.677 | 0.969
M fixed | 1.1 | 0.892 | 1.01 | 0.946 | 1.04 | 0.897 | 0.562 | 0.744 | 0.901
N fixed | 1.15 | 0.742 | 0.776 | 0.737 | 1.24 | 1.09 | 0.831 | 0.915 | 0.824
P fixed | 0.639 | 1.09 | 0.847 | 0.989 | 1.14 | 1.38 | 0.826 | 1.09 | 1.43
Q fixed | 1.22 | 0.626 | 0.727 | 0.848 | 1.61 | 1.08 | 0.75 | 0.706 | 0.717
R fixed | 0.59 | 0.632 | 0.552 | 0.628 | 1.04 | 0.824 | 0.746 | 0.74 | 0.768
V fixed | 2.02 | 0.985 | 0.711 | 0.923 | 0.787 | 0.986 | 0.595 | 0.692 | 0.78
W fixed | 0.738 | 1.59 | 1.38 | 1.46 | 0.898 | 0.635 | 0.628 | 1.67 | 1.16
Y fixed | 0.771 | 1.73 | 1.55 | 1.44 | 0.839 | 0.763 | 0.987 | 1.04 | 1.04
pThr fixed | 3.36 | 0.673 | 1.04 | 3.07 | 1.48 | 5.81 | 100 | 10.8 | 2.93
pTyr fixed | 1.32 | 6.1 | 4.04 | 2.48 | 1.76 | 3.06 | 5.64 | 10.7 | 3.72

PRKACG, construct: Full length (from UniProt P22612)
relative phosphorylation
Settings | at +1 | at +2 | at +3 | at +4 | at -1 | at -2 | at -3 | at -4 | at -5
A fixed | 0.696 | 1.22 | 0.896 | 0.974 | 0.795 | 0.472 | 0.682 | 0.944 | 1.09
D fixed | 0.44 | 0.969 | 0.917 | 0.885 | 0.473 | 0.197 | 0.322 | 0.595 | 0.569
E fixed | 0.469 | 0.676 | 0.951 | 0.985 | 0.452 | 0.215 | 0.344 | 0.665 | 0.577
F fixed | 1.58 | 1.13 | 1.06 | 0.761 | 0.709 | 0.578 | 0.441 | 0.653 | 0.754
G fixed | 0.804 | 1.08 | 1.26 | 1.17 | 1.21 | 0.565 | 0.846 | 1.09 | 1.09
H fixed | 1.05 | 1.45 | 1.39 | 1.14 | 1.11 | 1.08 | 1.35 | 1.3 | 1.42
I fixed | 1.57 | 0.902 | 0.819 | 1.16 | 0.343 | 0.227 | 0.289 | 0.564 | 0.63
K fixed | 1.08 | 0.812 | 1.08 | 0.978 | 2.41 | 4.09 | 2.19 | 1.85 | 1.97
L fixed | 1.32 | 0.961 | 0.87 | 0.866 | 0.746 | 0.324 | 0.297 | 0.582 | 0.627
M fixed | 1.51 | 0.926 | 0.805 | 0.879 | 0.959 | 0.414 | 0.49 | 0.873 | 0.713
N fixed | 0.851 | 0.942 | 0.921 | 1.04 | 1.15 | 0.689 | 0.776 | 1.01 | 0.965
P fixed | 0.295 | 0.941 | 1.05 | 1.28 | 1.16 | 0.445 | 1.03 | 1.06 | 0.86
Q fixed | 1.05 | 0.975 | 0.913 | 0.937 | 1.1 | 0.532 | 0.789 | 1.04 | 0.91
R fixed | 1.18 | 0.87 | 1.11 | 0.886 | 1.97 | 6.02 | 5.51 | 2.44 | 2.36
V fixed | 1.18 | 1.02 | 0.871 | 0.991 | 0.563 | 0.217 | 0.315 | 0.678 | 0.777
W fixed | 0.963 | 0.99 | 1.04 | 1.1 | 0.768 | 0.462 | 0.615 | 0.821 | 0.856
Y fixed | 0.969 | 1.14 | 1.05 | 0.979 | 1.09 | 0.478 | 0.716 | 0.847 | 0.824
pThr fixed | 0.817 | 0.71 | 0.919 | 1.52 | 0.455 | 0.542 | 0.792 | 0.954 | 0.769
pTyr fixed | 0.939 | 1.03 | 1.26 | 1.29 | 0.59 | 0.455 | 0.614 | 0.655 | 0.751

HIPK2, construct: aa153-564 (from UniProt Q9H2X6)
relative phosphorylation
Settings | at +1 | at +2 | at +3 | at +4 | at -1 | at -2 | at -3 | at -4 | at -5
A fixed | 0.477 | 1.23 | 0.93 | 0.869 | 1.32 | 2.32 | 0.857 | 1.07 | 1.08
D fixed | 0.109 | 0.923 | 0.689 | 0.906 | 0.483 | 0.281 | 0.703 | 0.956 | 0.993
E fixed | 0.125 | 0.509 | 0.582 | 0.75 | 0.514 | 0.284 | 0.592 | 1 | 0.893
F fixed | 0.151 | 1.2 | 0.766 | 1.12 | 0.482 | 0.32 | 0.261 | 0.575 | 0.814
G fixed | 0.628 | 1.64 | 1.4 | 1.16 | 1.16 | 0.943 | 1.33 | 1.24 | 1.09
H fixed | 0.224 | 1.34 | 1.08 | 1.01 | 0.948 | 0.387 | 0.658 | 0.899 | 1.09
I fixed | 0.225 | 0.631 | 0.649 | 0.95 | 0.397 | 0.66 | 0.279 | 0.562 | 0.686
K fixed | 0.284 | 1.2 | 0.738 | 1.04 | 1.98 | 0.671 | 1.2 | 1.05 | 1.1
L fixed | 0.189 | 0.634 | 0.803 | 0.839 | 0.578 | 0.621 | 0.361 | 0.69 | 0.754
M fixed | 0.183 | 0.765 | 0.742 | 0.901 | 0.782 | 0.543 | 0.326 | 0.72 | 0.652
N fixed | 0.235 | 1.02 | 0.953 | 0.878 | 0.843 | 0.739 | 0.784 | 0.887 | 0.971
P fixed | 11.5 | 1.46 | 3.51 | 1.06 | 1.95 | 4.16 | 1.06 | 2.04 | 1.49
Q fixed | 0.251 | 0.766 | 0.971 | 1.11 | 1.35 | 0.569 | 0.821 | 0.977 | 0.993
R fixed | 1.6 | 1.22 | 0.914 | 0.993 | 2.33 | 2.9 | 6.74 | 2.38 | 1.72
V fixed | 0.481 | 0.722 | 0.677 | 1.01 | 0.65 | 0.949 | 0.34 | 0.574 | 0.716
W fixed | 0.161 | 0.951 | 0.852 | 1.3 | 0.624 | 0.304 | 0.348 | 0.655 | 0.782
Y fixed | 0.163 | 0.79 | 0.741 | 1.11 | 0.604 | 0.347 | 0.35 | 0.727 | 1.16
pThr fixed | 0.283 | 0.441 | 0.615 | 0.816 | 0.423 | 1.04 | 0.734 | 1.27 | 1.23
pTyr fixed | 0.251 | 0.431 | 0.989 | 1.15 | 0.614 | 0.375 | 0.628 | 1.01 | 1.19
